For this assay, the target named is T1, glutathione S-transferase (GST)-HDA6 recombinant protein (Arabidopsis thaliana, UniProt Q9FML2 1-471).
T1 construct: Histone deacetylase HDA6 of Arabidopsis; Printed both as GST-HDA6 and as HDA6-GST; also called HDA6-GST; source: recombinant protein
T1 sequence (looked up): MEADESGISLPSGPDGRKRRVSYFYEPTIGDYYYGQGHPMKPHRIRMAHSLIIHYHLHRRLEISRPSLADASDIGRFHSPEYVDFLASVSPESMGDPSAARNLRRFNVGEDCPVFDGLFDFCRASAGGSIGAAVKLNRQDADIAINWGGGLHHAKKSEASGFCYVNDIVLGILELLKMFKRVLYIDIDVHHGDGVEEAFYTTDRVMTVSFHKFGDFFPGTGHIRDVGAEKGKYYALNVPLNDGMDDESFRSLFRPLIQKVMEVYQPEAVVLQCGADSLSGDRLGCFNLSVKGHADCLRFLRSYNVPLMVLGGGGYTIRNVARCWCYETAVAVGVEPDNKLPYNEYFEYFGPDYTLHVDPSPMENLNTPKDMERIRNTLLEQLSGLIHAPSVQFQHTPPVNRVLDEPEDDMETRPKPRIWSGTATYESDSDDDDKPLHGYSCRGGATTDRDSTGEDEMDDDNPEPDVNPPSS
The assay is described as follows: pull-down; 2 µg MBP-AS1 on MBP resin, then 2 µg GST-HDA6 for 2 h at 4°C; 20 mM Tris-HCl pH 7.5, 200 mM NaCl, 1 mM EDTA; western blot with anti-GST. The note with it: both partners purified. On the technique in general: Immunoblotting shows a protein as a band on a membrane.

B1: MBP-AS1 recombinant protein (natural protein, Arabidopsis thaliana, UniProt O80931 1-367, looked up)
chain: MKERQRWSGEEDALLRAYVRQFGPREWHLVSERMNKPLNRDAKSCLERWKNYLKPGIKKGSLTEEEQRLVIRLQEKHGNKWKKIAAEVPGRTAKRLGKWWEVFKEKQQREEKESNKRVEPIDESKYDRILESFAEKLVKERSNVVPAAAAAATVVMANSNGGFLHSEQQVQPPNPVIPPWLATSNNGNNVVARPPSVTLTLSPSTVAAAAPQPPIPWLQQQQPERAENGPGGLVLGSMMPSCSGSSESVFLSELVECCRELEEGHRAWADHKKEAAWRLRRLELQLESEKTCRQREKMEEIEAKMKALREEQKNAMEKIEGEYREQLVGLRRDAEAKDQKLADQWTSRHIRLTKFLEQQMGCRLDRP
notes: The methods spell MBP out as 'Myelin basic protein'; source: purified recombinant protein
For B1, the binding result was “binds”.

Values taken from PMC3521718, “Histone Deacetylase HDA6 Is Functionally Associated with AS1 in Repression of KNOX Genes in Arabidopsis” (PLoS Genetics, 2012).
